To fix the notation:
B1: FGFR2 parental antibody A (antibody, V domains shown)
VH: EVQLLESGGGLVQPGGSLRLSCAASGFTFSSYAMSWVRQAPGKGLEWVSAISGSGTSTYYADSVKGRFTISRDNSKNTLYLQMNSLRAEDTAVYYCARVRYNWNHGDWFDPWGQGTLVTVSS
VL: QSVLTQPPSASGTPGQRVTISCSGSSSNIGNNYVSWYQQLPGTAPKLLIYENYNRPAGVPDRFSGSKSGTSASLAISGLRSEDEADYYCSSWDDSLNYWVFGGGTKLTVL
notes: heavy chain of antibody A, IgG1; light chain of antibody A; IgG1; One of the six parental antibodies is the parental antibody of bemarituzumab; also called Ab-A; copies: 2 + 2
B2: FGFR2 parental antibody F (antibody, V domains shown)
VH: QVQLVQSGAEVKKPGESLKISCKGSGYSFTNYYIHWVRQMPGKGLEWMGAIYPDNSDTTYSPSFQGQVTISADKSISTAYLQWSSLKASDTAMYYCARGADIWGQGTLVTVSS
VL: DIQMTQSPSSLSASVGDRVTITCRASQDIDPYLSNWYQQKPGKAPKLLIYDASNLQSGVPSRFSGSGSGTDFTLTISSLQPEDFATYYCQQTTSHPYTFGQGTKVEIK
notes: heavy chain of antibody F, IgG1; light chain of antibody F; IgG1; One of the six parental antibodies is the parental antibody of bemarituzumab; also called Ab-F; copies: 2 + 2
B3: FGFR2 parental antibody E (antibody, V domains shown)
VH: QVQLVQSGAEVKKPGSSVKVSCKASGYIFTTYNVHWVRQAPGQGLEWIGSIYPDNGDTSYNQNFKGRATITADKSTSTAYMELSSLRSEDTAVYYCARGDFAYWGQGTLVTVSS
VL: DIQMTQSPSSLSASVGDRVTITCKASQGVSNDYAWYQQKPGKAPKLLIYSASYRYTGVPSRFSGSGSGTDFTFTISSLQPEDIATYYCQQHSTTPYTFGQGTKLEIK
notes: heavy chain of antibody E, IgG1; light chain of antibody E; IgG1; One of the six parental antibodies is the parental antibody of bemarituzumab; Also used as the FGFR2 immunoblot reagent (Genscript); also called Ab-E; copies: 2 + 2
B4: anti-FGFR2 parental antibody D (antibody, V domains shown)
VH: EVQLVESGGGLVQPGGSLRLSCAASGFPFTSTGISWVRQAPGKGLEWVGRTHLGDGSTNYADSVKGRFTISADTSKNTAYLQMNSLRAEDTAVYYCARTYGIYDTYDMYTEYVMDYWGQGTLVTVSS
VL: DIQMTQSPSSLSASVGDRVTITCRASQDVDTSLAWYKQKPGKAPKLLIYSASFLYSGVPSRFSGSGSGTDFTLTISSLQPEDFATYYCQQSTGHPQTFGQGTKVEIK
notes: heavy chain of antibody D; light chain of antibody D; IgG1; also called Ab-D; copies: 2 + 2
B5: anti-FGFR2 parental antibody B (antibody, V domains shown)
VH: QIQLVQSGPELKKPGETVKISCKASGYTFTDFGMNWMKQAPGKGFKWMGWINTSTGESTYADDFKGRFAFSLETSASTAYLQINNLKNEDMATYFCARNSYYGGSYGYWGQGTTLTVSS
VL: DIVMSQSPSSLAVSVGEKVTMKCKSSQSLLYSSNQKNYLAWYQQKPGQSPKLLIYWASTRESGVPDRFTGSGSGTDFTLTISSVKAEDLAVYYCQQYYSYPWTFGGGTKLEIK
notes: heavy chain of antibody B; light chain of antibody B; IgG1; also called Ab-B; copies: 2 + 2
B6: anti-FGFR2 parental antibody C (antibody, V domains shown)
VH: QVQLVESGGGLVKPGGSLRLSCAASGFTFSSYALSWVRQAPGKGLEWVGRIRSKIDGGTTDYAAPVKGRFTISRDDSKNTLYLQMNSLKTEDTAVYYCARDRSPSDSSAFAIWGQGTLVTVSS
VL: DIELTQPPSVSVSPGQTASITCSGDNLGSQYVDWYQQKPGQAPVLVIYDDNDRPSGIPERFSGSNSGNTATLTISGTQAEDEADYYCQSWDSLSVVFGGGTKLTVL
notes: heavy chain of antibody C; light chain of antibody C; IgG1; also called Ab-C; copies: 2 + 2
B7: FGFR2 parental antibody D (antibody, V domains shown)
VH: B4 VH
VL: B4 VL
notes: heavy chain of antibody D, IgG1; light chain of antibody D; IgG1; One of the six parental antibodies is the parental antibody of bemarituzumab; also called Ab-D; copies: 2 + 2
B8: FGFR2 parental antibody B (antibody, V domains shown)
VH: B5 VH
VL: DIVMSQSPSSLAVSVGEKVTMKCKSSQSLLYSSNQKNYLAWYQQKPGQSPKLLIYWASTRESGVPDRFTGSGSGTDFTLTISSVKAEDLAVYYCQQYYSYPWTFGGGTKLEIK
notes: heavy chain of antibody B, IgG1; light chain of antibody B; IgG1; One of the six parental antibodies is the parental antibody of bemarituzumab; also called Ab-B; copies: 2 + 2
B9: FGFR2 parental antibody C (antibody, V domains shown)
VH: B6 VH
VL: B6 VL
notes: heavy chain of antibody C, IgG1; light chain of antibody C; IgG1; One of the six parental antibodies is the parental antibody of bemarituzumab; also called Ab-C; copies: 2 + 2
B10: Anti-FGFR2 parental antibody D (antibody, V domains shown)
VH: B4 VH
VL: B4 VL
notes: VH of antibody D; VL of antibody D; Full human IgG1; also produced with F405L or K409R in the Fc for Fab-arm exchange; The label 'GE' in some supplementary panels probably means D; also called Ab-D; copies: 2 + 2
B11: Anti-FGFR2 parental antibody B (antibody, V domains shown)
VH: B5 VH
VL: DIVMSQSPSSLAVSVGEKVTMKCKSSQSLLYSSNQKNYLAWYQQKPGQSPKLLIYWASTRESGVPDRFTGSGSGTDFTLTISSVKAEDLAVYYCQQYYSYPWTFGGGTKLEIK
notes: VH of antibody B; VL of antibody B; Full human IgG1; also produced with F405L or K409R in the Fc for Fab-arm exchange; The label 'Gal' in some supplementary panels probably means B; also called Ab-B; copies: 2 + 2
B12: Anti-FGFR2 parental antibody C (antibody, V domains shown)
VH: B6 VH
VL: B6 VL
notes: VH of antibody C; VL of antibody C; Full human IgG1; The label 'N10' in some supplementary panels probably means C; also called Ab-C; copies: 2 + 2

For the first assay, the target named is T1, hFGFR2 ECD 22-378 His-tag (Homo sapiens, UniProt P21802-3, biotin in the epitope binning only (Abcam Biotinylation Kit)).
T1 construct: human FGFR2 extracellular domain, residues 22-378; The antigen of the MSD-SET assay and the FGFR2 ECD of the SEC-MALS experiment are not described; also called hFGFR2 ECD AA22-AA378 His-tag; antigen; source: bought: SinoBiological
T1 sequence (P21802 other isoform, or with tags, fused parts or gaps): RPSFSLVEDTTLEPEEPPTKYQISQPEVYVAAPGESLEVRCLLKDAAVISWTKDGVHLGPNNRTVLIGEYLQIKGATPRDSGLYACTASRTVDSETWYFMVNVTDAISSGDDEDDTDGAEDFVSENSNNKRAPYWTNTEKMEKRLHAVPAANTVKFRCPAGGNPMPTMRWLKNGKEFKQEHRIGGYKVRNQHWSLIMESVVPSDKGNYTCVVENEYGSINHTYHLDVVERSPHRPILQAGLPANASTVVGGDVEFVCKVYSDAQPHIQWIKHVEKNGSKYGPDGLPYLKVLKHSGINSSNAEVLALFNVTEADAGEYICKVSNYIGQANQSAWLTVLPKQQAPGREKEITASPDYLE
Kind of assay: BLI; Octet RED96e, 25°C, 1x kinetic buffer; antibodies captured on Anti-Human Fc capture biosensor at 0.5 μg/mL; hFGFR2 ECD 22-378 His-tag as analyte, 2-fold dilutions from 100 nM; 1:1 binding model; apparent affinity. The following applies: both partners purified. For orientation: BLI is a label-free optical method that tracks binding on a fibre tip over time.
With B1, the binding result is given as “binds”.
Still for that read-out and setting: to B2 belongs “binds”; to B3, “binds”.

For the next assay, the target named is T2, hFGFR2 ECD 22-378 His-tag (Homo sapiens, UniProt P21802-3).
T2 construct: FGFR2, human, extracellular domain residues 22-378 (SinoBiological 16485-H08H); Analyte of the BLI kinetics; also called hFGFR2 ECD AA22-AA378 His-tag; source: bought: SinoBiological
The assay is described as follows: BLI; Octet RED96e, 25 C, 1,000 rpm, 1x kinetic buffer; antibody captured on anti-human Fc (AHC) biosensor at 0.5 ug/mL; hFGFR2 ECD 22-378 His-tag as analyte, 7 two-fold dilutions from 100 nM; 1:1 model, global fit; apparent. The following applies: both partners purified.
For B4, the Kd was 2.79 nM.
B5: the Kd turned out to be 5.5 nM.
On the same count and under the same terms, the same measure for B6: 7.05 nM.

The target of another assay is T3, full-length FGFR2-BICC1 on NIH3T3 cells (Homo sapiens, UniProt P21802-3, chimera).
T3 construct: FGFR2 part of the fusion, from its N-terminus with the extracellular domain to the breakpoint; the printed Gln361 fits the IIIb isoform (FGFR2b); BICC1 part of the fusion; also called FL; source: NIH3T3, transfected, on cells
T3 sequence (P21802 whole entry, looked up, change not shown, the tested form may be a part, canonical isoform): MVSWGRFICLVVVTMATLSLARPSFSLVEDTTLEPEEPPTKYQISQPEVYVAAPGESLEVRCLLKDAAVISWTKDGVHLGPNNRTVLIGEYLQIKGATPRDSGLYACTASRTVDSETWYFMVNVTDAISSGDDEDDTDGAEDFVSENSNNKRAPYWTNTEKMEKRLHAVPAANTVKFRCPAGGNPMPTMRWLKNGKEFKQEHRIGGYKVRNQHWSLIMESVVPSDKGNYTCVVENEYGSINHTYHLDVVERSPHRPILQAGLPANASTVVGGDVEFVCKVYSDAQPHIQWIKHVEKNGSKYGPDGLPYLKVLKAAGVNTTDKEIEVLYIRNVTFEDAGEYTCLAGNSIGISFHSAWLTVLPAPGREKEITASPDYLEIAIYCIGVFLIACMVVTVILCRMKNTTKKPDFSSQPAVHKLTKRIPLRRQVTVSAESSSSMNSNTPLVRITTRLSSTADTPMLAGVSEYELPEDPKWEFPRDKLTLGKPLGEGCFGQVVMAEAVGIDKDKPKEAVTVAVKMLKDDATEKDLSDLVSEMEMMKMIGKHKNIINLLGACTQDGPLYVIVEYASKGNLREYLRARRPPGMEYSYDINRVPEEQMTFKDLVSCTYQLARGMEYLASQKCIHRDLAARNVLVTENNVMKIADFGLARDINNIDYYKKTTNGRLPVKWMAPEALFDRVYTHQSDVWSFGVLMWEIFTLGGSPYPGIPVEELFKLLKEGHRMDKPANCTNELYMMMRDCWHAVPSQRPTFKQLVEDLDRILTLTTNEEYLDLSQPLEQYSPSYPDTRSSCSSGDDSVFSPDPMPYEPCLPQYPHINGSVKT
The assay is described as follows: flow cytometry on cells; NIH3T3 cells expressing full-length FGFR2-BICC1 or its D1, D2, D3 or D2+D3 deletion variants, parental antibody A-F at 10 μg/mL in 1x PBS (Mg2+ free), 1.5 hours at room temperature; anti-human IgG secondary antibody. The following applies: one partner purified. For orientation: A flow cytometer gives signals particle by particle.
On to B1, for which the binding result is given as “binds”.
Consider B7, for which the binding result is recorded as “binds”.
For the molecule B2, the binding result is “binds”.
B8: the binding result was “binds”.
The same measure, in the same setting: the same measure for B9: “binds”; for B3: “binds”.

For a further assay, the target named is T4, FGFR2 on SNU16 cells (FGFR2 amplification) (Homo sapiens (SNU-16, endogenous), UniProt P21802-3).
T4 construct: FGFR2 endogenous on SNU16 cells; source: endogenous, SNU16 cells
T4 sequence (P21802 22-821): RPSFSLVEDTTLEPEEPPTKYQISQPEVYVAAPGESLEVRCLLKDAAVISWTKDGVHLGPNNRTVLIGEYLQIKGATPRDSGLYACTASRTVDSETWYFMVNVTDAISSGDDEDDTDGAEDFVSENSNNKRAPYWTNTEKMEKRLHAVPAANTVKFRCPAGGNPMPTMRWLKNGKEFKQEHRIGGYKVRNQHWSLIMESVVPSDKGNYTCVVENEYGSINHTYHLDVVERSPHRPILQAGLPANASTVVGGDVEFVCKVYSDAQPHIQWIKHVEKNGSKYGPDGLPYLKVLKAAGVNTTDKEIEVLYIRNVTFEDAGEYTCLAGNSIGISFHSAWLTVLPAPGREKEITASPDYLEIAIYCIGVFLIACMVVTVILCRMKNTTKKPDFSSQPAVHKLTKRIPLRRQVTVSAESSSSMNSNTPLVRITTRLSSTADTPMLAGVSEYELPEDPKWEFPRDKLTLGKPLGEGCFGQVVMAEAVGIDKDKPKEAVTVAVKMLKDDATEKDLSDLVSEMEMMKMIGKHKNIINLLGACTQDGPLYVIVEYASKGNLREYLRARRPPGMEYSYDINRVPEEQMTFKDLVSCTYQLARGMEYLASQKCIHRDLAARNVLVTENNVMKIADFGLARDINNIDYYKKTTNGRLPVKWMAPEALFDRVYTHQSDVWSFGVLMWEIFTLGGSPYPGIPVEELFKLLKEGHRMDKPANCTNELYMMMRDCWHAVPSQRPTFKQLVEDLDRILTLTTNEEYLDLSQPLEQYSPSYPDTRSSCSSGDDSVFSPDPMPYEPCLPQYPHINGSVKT
The assay is described as follows: flow cytometry on cells; SNU-16 cells incubated with serial dilutions of parental antibody A-F in 1x PBS (Mg2+ free), 1.5 hours at room temperature; anti-human IgG secondary antibody; fit with a ligand-binding quadratic equation; apparent Kd. The following applies: one partner purified.
As to B1, the binding result is “binds”.
As to B2, the binding result is “binds”.
Same read-out and setting: to B3 belongs “binds”.

The target in a further assay is T5, hFGFR2 ECD 22-378 His-tag (human, UniProt P21802-3, biotin (Abcam Biotinylation Kit) in the epitope binning only).
T5 construct: human FGFR2 extracellular domain, residues 22-378, SinoBiological 16485-H08H; also called hFGFR2 ECD AA22-AA378 His-tag; source: bought: SinoBiological
T5 sequence (P21802 other isoform, or with tags, fused parts or gaps): as the sequence (P21802 other isoform, or with tags, fused parts or gaps) above
Kind of assay: BLI; Octet RED96e, 25°C, 1,000 rpm, 1x kinetic buffer; antibodies captured on anti-human Fc (AHC) biosensors at 0.5 ug/mL; hFGFR2 ECD 22-378 His-tag as analyte, 7 2-fold dilutions from 100 nM; association 300 s, dissociation 600 s; 1:1 model, global fit; apparent Kd for the biparatopic antibodies. The following applies: both partners purified.
Turning to B10, the Kd is 2.79 nM; the koff (as a rule, the rate constant with which the complex falls apart) is 0.000741 s⁻¹; the kon (in general, a measure of how fast the partners come together) is 282000 M⁻¹ s⁻¹.
For B11, the Kd came out at 5.5 nM, the koff was determined as 0.000316 s⁻¹ and the kon came out at 53100 M⁻¹ s⁻¹.
The like results for B12 were, in that order, 7.05 nM, 0.00292 s⁻¹ and 417000 M⁻¹ s⁻¹.

The values above are taken from publication PMC11996885, “Identification of potent biparatopic antibodies targeting FGFR2 fusion–driven cholangiocarcinoma” (The Journal of Clinical Investigation, 2025).
